Results as given in article PMC7613211 (Nature chemical biology, 2022).

Tests used:
BT4631^6S-Gal/GalNAc = biological target: T1, BT4631^6S-Gal/GalNAc (Bacteroides thetaiotaomicron, UniProt Q89YV0); assay: desulfation assay; assay type: biochemical
T1 sequence (Q89YV0 26-520): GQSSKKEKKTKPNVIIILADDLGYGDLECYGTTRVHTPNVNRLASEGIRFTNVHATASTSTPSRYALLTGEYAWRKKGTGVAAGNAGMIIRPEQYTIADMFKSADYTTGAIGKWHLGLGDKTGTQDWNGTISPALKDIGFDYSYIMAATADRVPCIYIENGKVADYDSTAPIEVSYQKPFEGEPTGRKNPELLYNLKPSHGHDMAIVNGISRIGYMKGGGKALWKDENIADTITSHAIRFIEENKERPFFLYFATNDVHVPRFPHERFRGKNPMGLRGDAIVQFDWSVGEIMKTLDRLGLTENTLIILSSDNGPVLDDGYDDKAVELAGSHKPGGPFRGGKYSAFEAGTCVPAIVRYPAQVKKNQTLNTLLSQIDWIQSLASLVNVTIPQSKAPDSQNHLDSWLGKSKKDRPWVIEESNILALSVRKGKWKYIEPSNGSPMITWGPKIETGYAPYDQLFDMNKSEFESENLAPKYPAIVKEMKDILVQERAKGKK

[1] = biological target: BT1918^3S,6S-GlcNAc (Bacteroides thetaiotaomicron) (UniProt Q8A6G6); assay: SEC-MALS
[2] = biological target: BT3796^4S-Gal/GalNAc (Bacteroides thetaiotaomicron) (UniProt Q8A171); assay: SEC-MALS
SEC-MALS = biological target: the molecule itself; assay: SEC-MALS

Molecule: CC(=O)N[C@H]1C(O)O[C@H](COS(=O)(=O)O)[C@H](O)[C@@H]1O (stereo partly drawn) [6S-GalNAc]
- desulfation assay (kcat/KM only, supplement) (BT4631^6S-Gal/GalNAc): BT4631^6S-Gal/GalNAc cleave both 6S-GalNAc and 6S-Gal equally well

Molecule: BT1918^3S,6S-GlcNAc (from UniProt Q8A6G6 1-500) (enzyme)
- stoichiometry N [1]: 2

Molecule: O=S(=O)(O)OC[C@H]1OC(O)[C@H](O)[C@@H](O)[C@H]1O (stereo partly drawn) [6S-Gal]
- desulfation assay (kcat/KM only, supplement) (BT4631^6S-Gal/GalNAc): BT4631^6S-Gal/GalNAc cleave both 6S-GalNAc and 6S-Gal equally well

Molecule: BT3796^4S-Gal/GalNAc (from UniProt Q8A171 1-518) (enzyme)
- stoichiometry N [2]: 2

B1: BT3057^4S-Gal/GalNAc (enzyme, Bacteroides thetaiotaomicron, UniProt Q8A397 1-508, looked up)
chain: QERPNIIVFLVDDMGLMDTSVPFIADESGQPVRHPLNDWYHTPNMERLAKQGICFSTFYAQSVSSPSRASIMTGQNATRHGVTNWINAESNNRNPFGPPQWNWKGLRKDMPTMPRVLQQAGYKTIHVGKAHFGCMGSEGENPLNIGFDVNIAGSGIGHPGSYYGEWGYGHIKGQKIRAVPDLEKYHGTDTFLSEALTIEANREITKAVEEKRPFYLNMAHYAVHSPFQADKRFLSRYTDPDKNEQARAFATLIEGMDKSLGDIMDQLEKLGIAENTLILFLGDNGGDAPLGDERGYGSSAPLRGKKGTEFEGGMRVPFIAAWAKPEKKSKVQKNLPIEVGSMQTQLGTIMDIYPTVLSVAGCEVPQNYVIDGFDLKKQLSGKVDKKRPESFLMHFPHAHRGSYFTTYRMGDWKLIYYYLPETPKQPKALLYNLKDDPEERNELSAAHPDQCREMIREMSARLEKEGALYPVDKQGNELKPFVYF
- stoichiometry N (SEC-MALS): 2
